Substitutions are numbered along the chain they refer to. Names may count otherwise.
B1: MBP-Stv1NT-FLAG (cytosolic N-terminal domain of the yeast Golgi V-ATPase Vo a-subunit isoform Stv1, aa 1-418) (domain or fragment, S. cerevisiae, UniProt P37296 1-418, looked up)
chain: MNQEEAIFRSADMTYVQLYIPLEVIREVTFLLGKMSVFMVMDLNKDLTAFQRGYVNQLRRFDEVERMVGFLNEVVEKHAAETWKYILHIDDEGNDIAQPDMADLINTMEPLSLENVNDMVKEITDCESRARQLDESLDSLRSKLNDLLEQRQVIFECSKFIEVNPGIAGRATNPEIEQEERDVDEFRMTPDDISETLSDAFSFDDETPQDRGALGNDLTRNQSVEDLSFLEQGYQHRYMITGSIRRTKVDILNRILWRLLRGNLIFQNFPIEEPLLEGKEKVEKDCFIIFTHGETLLKKVKRVIDSLNGKIVSLNTRSSELVDTLNRQIDDLQRILDTTEQTLHTELLVIHDQLPVWSAMTKREKYVYTTLNKFQQESQGLIAEGWVPSTELIHLQDSLKDYIETLGSEYSTVFNVIL
B2: MBP-Stv1NT(K84A)-FLAG (domain or fragment, S. cerevisiae, UniProt P37296 1-418, looked up)
chain: B1 chain with K84A

Molecular target: the molecule itself
Test: SEC

Protein	binding result
B1	binds
B2	binds
